The term stoichiometry N denotes a count of units in the complex or per binding partner. What is called Kd is a measure of binding affinity in units of concentration. Low readings indicate a tighter complex, high ones a looser complex.

In test [1] the target is T1, human full-length kindlin-2, from Sf9 insect cells (monomer) (human), Q96AC1.
T1 chain: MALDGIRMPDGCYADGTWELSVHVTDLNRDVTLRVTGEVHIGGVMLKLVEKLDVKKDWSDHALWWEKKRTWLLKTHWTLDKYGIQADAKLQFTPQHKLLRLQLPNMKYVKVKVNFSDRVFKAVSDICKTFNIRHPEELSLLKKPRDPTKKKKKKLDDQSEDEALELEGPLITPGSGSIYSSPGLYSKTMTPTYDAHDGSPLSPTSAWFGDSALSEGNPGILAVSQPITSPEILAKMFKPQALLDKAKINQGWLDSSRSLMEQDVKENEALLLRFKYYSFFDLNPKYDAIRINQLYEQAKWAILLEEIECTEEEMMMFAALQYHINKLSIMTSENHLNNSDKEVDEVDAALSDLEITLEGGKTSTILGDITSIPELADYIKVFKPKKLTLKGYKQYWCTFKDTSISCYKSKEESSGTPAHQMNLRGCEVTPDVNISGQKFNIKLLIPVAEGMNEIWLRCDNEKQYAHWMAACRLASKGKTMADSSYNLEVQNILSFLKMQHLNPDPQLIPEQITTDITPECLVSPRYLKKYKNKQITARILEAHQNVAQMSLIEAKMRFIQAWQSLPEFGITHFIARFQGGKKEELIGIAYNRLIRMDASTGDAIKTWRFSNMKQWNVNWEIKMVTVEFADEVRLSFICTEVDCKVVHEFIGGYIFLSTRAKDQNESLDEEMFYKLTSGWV
In words: SEC; analytical gel filtration, Superdex 200 Increase 10/300 GL, 20 mM Tris-HCl pH 7.5, 150 mM NaCl, calibrated with HMW kit. The settings on record: remark: other sources report otherwise.

For test [2], the target named is T1, human full-length kindlin-2, from Sf9 …. In words: SEC-MALS; Superdex 200 increase 5/150 GL, 20 mM HEPES pH 7.5, 500 mM NaCl, at least 2 mg/mL. The settings on record: remark: other sources report otherwise.
In test [3] the target is human full-length kindlin-3, wild type, from Sf9 insect cells (monomer) (human, UniProt Q86UX7 1-667). In words: ITC; MicroCal PEAQ-ITC, 25 °C, 50 mM HEPES pH 7.5, 150 mM NaCl; 500 μM ITGB1 tail injected into 50 μM monomer or trimer kindlin. The conditions noted are these: both partners purified. On the technique in general: Isothermal titration calorimetry measures the heat released or taken up as one component is titrated into another.
Chain of human full-length kindlin-3, wild type, from Sf9 insect cells (monomer) (Q86UX7 whole entry): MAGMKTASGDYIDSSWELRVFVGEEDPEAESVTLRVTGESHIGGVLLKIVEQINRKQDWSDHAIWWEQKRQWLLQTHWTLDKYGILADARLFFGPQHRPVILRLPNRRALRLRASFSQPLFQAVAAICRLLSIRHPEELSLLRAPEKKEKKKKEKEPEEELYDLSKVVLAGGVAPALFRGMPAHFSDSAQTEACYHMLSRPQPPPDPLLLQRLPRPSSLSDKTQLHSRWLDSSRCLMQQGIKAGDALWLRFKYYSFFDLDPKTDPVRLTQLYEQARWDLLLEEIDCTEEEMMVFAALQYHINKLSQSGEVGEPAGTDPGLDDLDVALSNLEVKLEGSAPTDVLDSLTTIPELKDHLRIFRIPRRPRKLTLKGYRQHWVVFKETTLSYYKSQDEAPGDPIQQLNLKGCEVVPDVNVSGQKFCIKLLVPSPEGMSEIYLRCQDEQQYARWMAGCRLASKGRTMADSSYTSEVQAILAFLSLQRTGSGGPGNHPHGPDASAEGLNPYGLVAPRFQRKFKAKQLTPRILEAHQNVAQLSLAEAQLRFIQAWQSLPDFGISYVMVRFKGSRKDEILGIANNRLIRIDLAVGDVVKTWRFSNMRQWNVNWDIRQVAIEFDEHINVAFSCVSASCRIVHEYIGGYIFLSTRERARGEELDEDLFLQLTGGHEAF

Test [4] deals with human full-length kindlin-2, from Sf9 insect cells (monomer) (human) (UniProt Q96AC1). Described as above.

B1: human full-length kindlin-2, from Sf9 insect cells (monomer), Q96AC1 1-680 (natural protein)
chain: MALDGIRMPDGCYADGTWELSVHVTDLNRDVTLRVTGEVHIGGVMLKLVEKLDVKKDWSDHALWWEKKRTWLLKTHWTLDKYGIQADAKLQFTPQHKLLRLQLPNMKYVKVKVNFSDRVFKAVSDICKTFNIRHPEELSLLKKPRDPTKKKKKKLDDQSEDEALELEGPLITPGSGSIYSSPGLYSKTMTPTYDAHDGSPLSPTSAWFGDSALSEGNPGILAVSQPITSPEILAKMFKPQALLDKAKINQGWLDSSRSLMEQDVKENEALLLRFKYYSFFDLNPKYDAIRINQLYEQAKWAILLEEIECTEEEMMMFAALQYHINKLSIMTSENHLNNSDKEVDEVDAALSDLEITLEGGKTSTILGDITSIPELADYIKVFKPKKLTLKGYKQYWCTFKDTSISCYKSKEESSGTPAHQMNLRGCEVTPDVNISGQKFNIKLLIPVAEGMNEIWLRCDNEKQYAHWMAACRLASKGKTMADSSYNLEVQNILSFLKMQHLNPDPQLIPEQITTDITPECLVSPRYLKKYKNKQITARILEAHQNVAQMSLIEAKMRFIQAWQSLPEFGITHFIARFQGGKKEELIGIAYNRLIRMDASTGDAIKTWRFSNMKQWNVNWEIKMVTVEFADEVRLSFICTEVDCKVVHEFIGGYIFLSTRAKDQNESLDEEMFYKLTSGWV
For the molecule B1, the stoichiometry N in test [1] and in test [2] was 3 throughout.

B2: human integrin β1 cytoplasmic tail (ITGB1 residues 773–798) (domain or fragment, UniProt P05556-1 773-798, looked up)
chain: AKWDTGENPIYKSAVTTVVNPKYEGK
notes: integrin beta-1, human, cytoplasmic tail residues 773-798; pNH-TrxT, N-terminal cleavable 6xHis thioredoxin tag; no cleavage step is described and the ITC control was the His-Trx tag alone, so the tag was probably kept (surmise); also called ITGB1 tail; integrin β1 tail
Consider B2, for which the Kd is ~200 µM in test [3] and 13.4 µM in test [4].

The record behind these values is article PMC7373317, “Structural basis of human full-length kindlin-3 homotrimer in an auto-inhibited state” (PLoS Biology, 2020).
